Experimental data taken from patent publication US20060177432A1 (Novartis, published 2006).

What was measured:
chymotrypsin = experiment: chromogenic substrate hydrolysis at varied substrate and PEBP-H6 concentrations, fitted to the equation for a competitive inhibitor
Description: (§1) Six different serine proteases were diluted in enzyme buffer (67 mM Tris, pH 8.0, 133 mM NaCl, 0.13% PEG-6000) and used in protease activity assays with the following final amounts: thrombin, trypsin and chymotrypsin, 0.005 pmol; t-PA and neuropsin, 0.5 pmol; and pancreatic elastase, 4 pmol. Human α-thrombin was prepared and according to Stone et al. (Stone, S. R. and Hofsteenge, J. (1986) Biochemistry 25, 46224628); all other proteases are commercially available (e.g., Sigma, Fluka). […] The pre-incubation was carried out in a 96-well plate for 30 min at 37° C. After addition of 10 μl chromogenic protease substrate (H-D-Ile-Pro-Arg-para-nitroanilide, Chromogenix, 1.25 mg/ml in H₂O for all proteases other than chymotrypsin; or N-Succinyl-Ala-Ala-Pro-Phe-para-nitroanilide, Sigma, 2.3 mg/ml in H₂O for chymotrypsin), any remaining amidolytic activity was determined by measuring the rate of hydrolysis of the chromogenic substrate at 405 nm over 30 min using a THERMOmax microplate reader (Molecular Devices). […]
(§2) To determine the inhibition constants, the rates for the hydrolysis of the chromogenic substrates were measured as described above at fixed enzyme concentrations and substrate concentrations ranging from 3.5 μM to 216 μM and PEBP-H6 concentrations between 0 and 2.9 μM. […]

human α-thrombin = human α-thrombin (human, UniProt P00734 328-622); experiment: as above
Description: as §1, §2

Ki (chymotrypsin): 1800 nM
Ki (human α-thrombin): 380 nM
B1: PEBP-H6 (mouse PEBP with a stretch of six histidine residues fused to the carboxy-terminus) (other)
chain: AADISQWAGPLCLQEVDEPPQHALRVDYAGVTVDELGKVLTPTQVMNRPSSISWDGLDPGKLYTLVLTDPDAPSRKDPKFREWHHFLVVNMKGNDISSGTVLSDYVGSGPPSGTGLHRYVWLVYEQEQPLSCDEPILSNKSGDNRGKFKVETFRKKYNLGAPVAGTCYQAEWDDYVPKLYEQLSGKHHHHHH
notes: Expressed in Rat-1 cells and purified on Ni-NTA
